# Experimental data taken from US12416034B2, “Recombinant production of steviol glycosides” (EVOLVA SA, priority 2011, dated 2025).
# B1: UGT76G1: S. rebaudiana UGT, SEQ ID NO:7 (protein, listed as Stevia rebaudiana)
# chain: MENKTETTVRRRRRIILFPVPFQGHINPILQLANVLYSKGFSITIFHTNFNKPKTSNYPHFTFRFILDNDPQDERISNLPTHGPLAGMRIPIINEHGADELRRELELLMLASEEDEEVSCLITDALWYFAQSVADSLNLRRLVLMTSSLFNFHAHVSLPQFDELGYLDPDDKTRLEEQASGFPMLKVKDIKSAYSNWQILKEILGKMIKQTKASSGVIWNSFKELEESELETVIREIPAPSFLIPLPKHLTASSSSLLDHDRTVFQWLDQQPPSSVLYVSFGSTSEVDEKDFLEIARGLVDSKQSFLWVVRPGFVKGSTWVEPLPDGFLGERGRIVKWVPQQEVLAHGAIGAFWTHSGWNSTLESVCEGVPMIFSDFGLDQPLNARYMSDVLKVGVYLENGWERGEIANAIRRVMVDEEGEYIRQNARVLKQKADVSLMKGGSSYESLESLVSYISSL
# B2: UGT85C2: S. rebaudiana UGT, SEQ ID NO:3 (protein, listed as Stevia rebaudiana)
# chain: MDAMATTEKKPHVIFIPFPAQSHIKAMLKLAQLLHHKGLQITFVNTDFIHNQFLESSGPHCLDGAPGFRFETIPDGVSHSPEASIPIRESLLRSIETNFLDRFIDLVTKLPDPPTCIISDGFLSVFTIDAAKKLGIPVMMYWTLAACGFMGFYHIHSLIEKGFAPLKDASYLTNGYLDTVIDWVPGMEGIRLKDFPLDWSTDLNDKVLMFTTEAPQRSHKVSHHIFHTFDELEPSIIKTLSLRYNHIYTIGPLQLLLDQIPEEKKQTGITSLHGYSLVKEEPECFQWLQSKEPNSVVYVNFGSTTVMSLEDMTEFGWGLANSNHYFLWIIRSNLVIGENAVLPPELEEHIKKRGFIASWCSQEKVLKHPSVGGFLTHCGWGSTIESLSAGVPMICWPYSWDQLTNCRYICKEWEVGLEMGTKVKRDEVKRLVQELMGEGGHKMRNKAKDWKEKARIAIAPNGSSSLNIDKMVKEITVLARN
# B3: UGT91D2e: UGT91D2e polypeptide from Stevia rebaudiana, SEQ ID NO:5 (protein, listed as Stevia rebaudiana)
# chain: MATSDSIVDDRKQLHVATFPWLAFGHILPYLQLSKLIAEKGHKVSFLSTTRNIQRLSSHISPLINVVQLTLPRVQELPEDAEATTDVHPEDIPYLKKASDGLQPEVTRFLEQHSPDWIIYDYTHYWLPSIAASLGISRAHFSVTTPWAIAYMGPSADAMINGSDGRTTVEDLTTPPKWFPFPTKVCWRKHDLARLVPYKAPGISDGYRMGLVLKGSDCLLSKCYHEFGTQWLPLLETLHQVPVVPVGLLPPEIPGDEKDETWVSIKKWLDGKQKGSVVYVALGSEVLVSQTEVVELALGLELSGLPFVWAYRKPKGPAKSDSVELPDGFVERTRDRGLVWTSWAPQLRILSHESVCGFLTHCGSGSIVEGLMFGHPLIMLPIFGDQPLNARLLEDKQVGIEIPRNEEDGCLTKESVARSLRSVVVEKEGEIYKANARELSKIYNDTKVEKEYVSQFVDYLEKNARAVAIDHES
# Tests used:
# EUGT11 = test: Inhibition studies of RebD production; format: biochemical, Oryza sativa; conditions: Steviva 500 μg/ml, UDP 500 μM; around 30 μM without any addition
# Experimental: Experiments were conducted to determine if factors such as sucrose, fructose, UDP, product (RebD) and impurities in the less pure Stevia extracts raw materials inhibited the extent of the conversion of steviol glycoside substrates to RebD. In a standard reaction mixture, excess of the potential inhibitors (sucrose, fructose, UDP, RebD, or a commercial blend of steviol glycosides (Steviva, Steviva Brands, Inc., Portland, OR)) were added. Following incubation, RebD-production was quantified. […] The RebD that was produced was less than 7 μM. This inhibition can be alleviated in the in vivo or in vitro reactions for RebD production, by including an UDP recycling system to UDP-glucose, either by yeast or by an added SUS (sucrose synthase enzyme) in conjunction with sucrose.
# [1] = Codon optimized UGT cell lysate assay, 13-SMG as substrate; format: biochemical; conditions: 0.25 mM 13-SMG, 24 hours, 30° C.
# Experimental: (§1) The wild-type, DNA 2.0, and GeneArt sequences were assayed for in vitro activity to compare reactivity on substrates in the steviol glycosides pathway. UGTs were inserted in high copy (2p) vectors and expressed from a strong constitutive promoter (GPD1) (vectors P423-GPD, P424-GPD, P425-GPD, and P426-GPD). The plasmids were transformed individually into the universal Watchmaker strain, EFSC301 (described in Example 3 of WO2011/153378) and assays were carried out using cell lysates prepared from equal amount of cells (8 OD units). For the enzymatic reactions, 6 μL of each cell lysate were incubated in a 30 μL reaction with 0.25 mM steviol (final concentration) to test UGT74G1 and UGT85C2 clones, and with 0.25 mM 13-SMG (13SMG) (final concentration) to test 76G1 and 91D2e UGTs. Assays were carried out for 24 hours at 30° C. Prior to LC-MS analysis, one volume of 100% DMSO was added to each reaction, samples were centrifuged at 16000 g, and the supernatants analysed.
# [2] = Denaturation temperature by differential scanning calorimetry (DSC); format: physicochemical; conditions: 6HIS-purified enzymes, 91D2e-b GST-purified
# Experimental: To assess the thermal stability of EUGT11 and to compare it with the other UGTs in the steviol glycosylation pathway, denaturation temperatures of the proteins were determined using differential scanning calorimetry (DSC). Use of DSC thermograms to estimate denaturation temperatures, TD, is described, for example, by E. Freire in Methods in Molecular Biology 1995, Vol. 40 191-218. DSC was performed (using 6HIS-purified EUGT11, yielding an apparent TD of 39° C.; while when GST-purified 91D2e-b was used, the measured TD was 79° C. For reference, the measured TD when using 6HIS-purified UGT74G1, UGT76G1 and UGT85C2 was 86° C. in all cases. One of skill in the art will recognize that enzyme immobilization or addition of thermal protectants can be added to the reactions to improve stability of the protein. Non-limiting examples of thermal protectants include trehalose, glycerol, ammonium sulphate, betaine, trimethylamine oxide, and proteins.
# [3] = Codon optimized UGT cell lysate assay, steviol as substrate; format: biochemical; conditions: 0.25 mM steviol, 24 hours, 30° C.
# Experimental: as §1
# [4] = tested on: S. cerevisiae strain BY4741; test: Steviol-feeding experiment of S. cerevisiae strain BY4741; format: cell-based; conditions: co-expressed with wild type UGT74G1, steviol feeding
# Experimental: Further experiments were conducted to determine if the codon-optimized UGT85C2 could reduce 19-SMG accumulation and increase rubusoside and higher glycosylated steviol glycosides production. The production of 19-SMG and rubusoside were analysed in a steviol-feeding experiment of S. cerevisiae strain BY4741 expressing the wild type UGT74G1 as well as the codon-optimized UGT85C2 from high copy (2p) vectors under strong constitutive promoter (GPD1) (vectors P426-GPD and P423-GPD, respectively). Whole culture samples (without cell removal) were taken and boiled in an equal volume of DMSO for total glycosides levels. Intracellular concentrations reported were obtained by pelleting cells, and resuspending in 50% DMSO to the volume of the original culture sample taken, followed by boiling. The “total” glycosides level and the normalized intracellular level then were measured using LC-MS. Using wild type UGT74G1 and wild type UGT85C2, approximately 13.5 μM rubusoside was produced in total with a maximum normalized intracellular concentration of about 7 μM. In contrast, when wild type UGT74G1 and codon-optimized UGT85C2 were used, a maximum of 26 μM rubusoside was produced, or approximately double of what was produced using the wild type UGT85C2. Additionally, the maximum normalized intracellular concentration of rubusoside was 13 μM, again an approximate doubling of what was produced using wild type UGT85C2. […] Consequently, about 10 μM less total 19-SMG was measured for the codon-optimized UGT85C2.
# [5] = In vitro transcribed and translated UGTs incubated with RebA and UDP-glucose, LC-MS; format: biochemical; conditions: LC-MS chromatograms, FIG. 4
# Experimental: In vitro transcription and translation of these genes was performed, and the resulting UGTs incubated with RebA and UDP-glucose. Following incubation, the reactions were analyzed by LC-MS. […] See LC-MS chromatograms in FIG. 4. As shown in the left panel of FIG. 4, UGT91D2e produced a trace amount of RebD when RebA was used as the feedstock.
# (§2) EUGT11 was produced by in vitro transcription and translation, and incubated with various substrates in the RebD pathway. Similar experiments were carried out using in vitro transcribed and translated UGT91D2e. […] Compounds 1-3 were identified solely by mass and expected retention time. The numbers shown in FIG. 3 are the average peak height of the indicated steviol glycoside obtained from a LC-MS chromatogram, and, although not quantitative, can be used to compare the activity of the two enzymes. […] Both enzymes were able to convert steviol 19-O-monoglucoside (SMG) to compound 1, with EUGT11 being about ten times more efficient than UGT91D2e at converting 19-SMG to compound 1.
# Both enzymes were able to convert RebA to RebD. However, EUGT11 was approximately 30 times better at converting RebA to RebD. Overall, it appears that EUGT11 produces more product than UGT91D2e in all reactions (with similar time, concentrations, temperature, and purity of enzyme) except the conversion of rubusoside to stevioside.
# [6] = In vitro transcribed and translated UGTs incubated with rubusoside, LC-MS; format: biochemical
# Experimental: as §2
# The left panel of FIG. 5 contains LC-MS chromatograms of the conversion of rubusoside to stevioside. The right panel of FIG. 5 contains chromatograms of the conversion of rubusoside to stevioside, to compound 2, and to compound 3 (RebE). Conversion of rubusoside to compound 3 requires two consecutive 1, 2-O-glycosylations at the 19- and 13-positions of steviol.
# [7] = Screening by LC-MS of E. coli lysates, rubusoside as substrate; format: biochemical
# Experimental: (§3) To analyze the approximately 1600 mutant clones of UGT91D2e, the E. coli transformants were grown overnight at 30° C. in 1 ml of NZCYM containing ampicillin (100 mg/1) and chloramphenicol (33 mg/1), in 96-well format. The next day, 150 μl of each culture was inoculated into 3 ml NZCYM containing ampicillin (100 mg/1), chloramphenicol (33 mg/1), arabinose 3 mM, IPTG 0.1 mM and ethanol 2% v/v, in 24-well format, and incubated at 20° C. and 200 rpm for ˜20 h. The following day, cells were spun down and pellets were resuspended in 100 μl of lysis buffer containing 10 mM Tris-HCl pH 8, 5 mM MgCl2, 1 mM CaCl2) and complete mini protease inhibitor EDTA-free (3 tablets/100 ml) (Hoffmann-La Roche, Basel, Switzerland) and frozen −80° C. for at least 15 minutes to promote cell lysis. […] In each case, the resulting compounds, stevioside or rebaudioside D (rebD), were measured by LC-MS. Results were analyzed in comparison with the stevioside or rebD produced by the lysates expressing the corresponding controls (91D2e, 91D2e-b, EUGT11 and the empty plasmid). […]
# (§4) Half of the 1600 clones and the corresponding controls were assayed for their capacity to glycosylate rubusoside and rebaudiosideA. Stevioside and RebD were quantified by LC-MS. […]
# [8] = In vitro transcribed and translated UGTs incubated with steviol, LC-MS; format: biochemical
# Experimental: as §2
# [9] = Screening by LC-MS of E. coli lysates, rebaudioside A as substrate; format: biochemical; conditions: RebA substrate
# Experimental: as §3, §4
molecule,measurement,setting,value
O=c1ccn([C@@H]2O[C@H](COP(=O)(O)OP(=O)(O)O)[C@@H](O)[C@H]2O)c(=O)[nH]1 [UDP],RebD production in presence of potential inhibitor,EUGT11,less than 7 μM
B1,activity of GeneArt lysate as a percentage of the wild-type enzyme,[1],170%
same,denaturation temperature TD,[2],86 °C
B2,activity of GeneArt lysate as a percentage of the wild-type enzyme,[3],340%
same,maximum intracellular concentration of 19-SMG,[4],35 µM
same,maximum normalized intracellular concentration of rubusoside,[4],about 7 μM
same,rubusoside produced in total,[4],approximately 13.5 μM
same,denaturation temperature TD,[2],86 °C
B3,amount of RebD produced when RebA was used as the feedstock,[5],trace amount
same,amount of compound 3 (RebE) produced from rubusoside,[6],trace amount
same,activity of GeneArt lysate as a percentage of the wild-type enzyme,[1],130%
same,stevioside formed by lysates,[7],approximately 0.5 μM
same,use of steviol as a substrate,[8],not able to use steviol as a substrate
same,RebD formed by lysates,[9],~1 µM
